Here are results for six molecules from US20100104509A1, “HUMAN ANTIBODIES THAT BIND CD19 AND USES THEREOF” (Medarex, Inc., priority 2006, published 2010).

In one series the target is T1, Raji B cell line (Homo sapiens, UniProt P15391).
T1 construct: the CD19 protein is expressed on the surface of tumor cell lines of B cell origin; host or cells: Raji (human Burkitt's lymphoma B cell line)
T1 sequence (P15391 20-556): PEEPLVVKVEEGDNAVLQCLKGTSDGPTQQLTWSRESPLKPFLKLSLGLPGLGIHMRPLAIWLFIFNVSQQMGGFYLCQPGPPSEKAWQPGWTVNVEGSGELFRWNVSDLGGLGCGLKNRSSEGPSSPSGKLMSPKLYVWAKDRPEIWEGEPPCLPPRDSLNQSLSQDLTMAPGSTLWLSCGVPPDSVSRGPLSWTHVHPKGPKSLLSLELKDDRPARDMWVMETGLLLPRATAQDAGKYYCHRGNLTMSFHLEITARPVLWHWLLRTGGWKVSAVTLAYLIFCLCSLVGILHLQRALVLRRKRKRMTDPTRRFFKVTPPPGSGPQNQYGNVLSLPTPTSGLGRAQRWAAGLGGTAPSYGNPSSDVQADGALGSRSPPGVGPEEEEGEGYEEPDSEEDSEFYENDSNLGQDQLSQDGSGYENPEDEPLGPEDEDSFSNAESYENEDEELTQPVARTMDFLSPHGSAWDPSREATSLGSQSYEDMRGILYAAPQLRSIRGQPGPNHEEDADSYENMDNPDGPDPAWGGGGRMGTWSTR
Nature of the series: Flow cytometry binding to Raji cells. On the procedure:
Binding of the CD19 HuMAbs by flow cytometry to the B cell tumor lines Raji and Daudi, or to a CHO-CD19 transfected cell line was assessed. CHO cells were transfected with an expression plasmid containing the full length cDNA encoding the transmembrane form of CD19. […] A known murine anti-CD19 antibody was used as a positive control. The cells were washed and detected by either a phycoerythrin-labeled anti-human or anti-mouse secondary antibody and analyzed by flow cytometry. The results for binding to the CHO-CD19 cell line, Daudi B cell line, Raji B cell line and an expanded binding set against the Raji B cell line are shown in FIGS. 25A, 25B, 25C and 25D, respectively. […] All results are shown as measured by the geometric mean fluorescent intensity (GMFI) of staining.

The nature of series [1]: Capillary isoelectric focusing. The format is physicochemical. To be noted: capillary isoelectric focusing kit assay; listed as fucosylated 21D4a.
Series [2] in a line: Differential scanning calorimetry. The format is physicochemical. As to conditions: 2.3 μM in PBS pH 7.4, 30 to 95° C. at 1° C./min. As for the experimental part: The thermal stability of the anti-CD19 monoclonal antibodies were compared using calorimetric analysis of their melting temperatures.
Calorimetric measurements of melting Temperatures™ were carried out on a VP-Capillary DSC differential scanning microcalorimeter platform that is combined with an autosampler (MicroCal LLC, Northampton, Mass., USA). Sample cell volume is 0.144 mL. Denaturation data on the glycosylated and deglycosylated forms of the antibodies was obtained by heating the samples, at a concentration of 2.3 μM, from 30 to 95° C. at a rate of 1° C./min. The protein samples were present in phosphate-buffered saline (PBS) at pH 7.4. The same buffer was used in the reference cell to obtain the molar heat capacity by comparison. The observed thermograms were baseline corrected and normalized data analyzed based on a 2-state model, using the software Origin v7.0.

Series [3] can be described thus: Chemical denaturation by fluorescence spectroscopy. The format is physicochemical. As to conditions: guanidinium hydrochloride in PBS, 24 hours, 2 μM antibody. On the procedure:
The stability of anti-CD19 monoclonal antibodies were compared by measuring the midpoint of chemical denaturation by fluorescence spectroscopy.
Fluorescence measurements of chemical denaturation were performed on a SPEX Fluorolog 3.22 with a Micromax plate reader (SPEX, Edison, N.J.). The measurements were performed on antibody samples that had been left for 24 hours to equilibrate in 16 different concentrations of guanidinium hydrochloride in PBS buffer. The measurements were made in black, low volume, non-binding surface 384-well plates (Corning, Acton, Mass.) and required 2 μM of antibody in a well volume of 12 μL Fluorescence was excited at 280 nm and the emission spectra were measured between 300 and 400 nm. The scan speed was 1 second per nm and slits were set to 5 nm bandpass. A buffer blank was performed using PBS and automatically subtracted from the data.

Changes are numbered by the printed parent chain. Names may count otherwise. “And” between values parts separate entries of the source, which are not always exact repeats. Equal entries are not always repeated.

B1: 21D4a: human monoclonal anti-CD19 antibody, VH SEQ ID NO: 1 and VL SEQ ID NO: 9 (antibody, listed as Homo sapiens, V domains shown)
VH: EVQLVQSGAEVKKPGESLKISCKGSGYSFSSSWIGWVRQMPGKGLEWMGIIYPDDSDTRYSPSFQGQVTISADKSIRTAYLQWSSLKASDTAMYYCARHVTMIWGVIIDFWGQGTLVTVSS
VL: AIQLTQSPSSLSASVGDRVTITCRASQGISSALAWYQQKPGKAPKLLIYDASSLESGVPSRFSGSGSGTDFTLTISSLQPEDFATYYCQQFNSYPFTFGPGTKVDIK
As for B1, in the series with Raji B cell line, the “binding by flow cytometry (GMFI)” value is listed as “bound to the Raji B cell line”. The “observed pI values” in series [1] was 8.44 pH and 8.21 pH. Further, the “Thermo Stability Tm1” value in series [2] was found to be 69.7 °C. Further, in series [3], the “Unfolding Midpoint” value is 2.97 M.

B2: 13F1: human monoclonal anti-CD19 antibody, VH SEQ ID NO: 6 and VL SEQ ID NO: 14 (antibody, listed as Homo sapiens, V domains shown)
VH: EVQLVQSGAEVKKPGESLQISCKGSGYTFTNYWIAWVRQMPGKGLEWMGIIYPGDSDTRYSPSFQGQVTISADKSISTAYLQWSGLKASDTAMYYCARQGYSSGWRSYYGMGVWGQGTTVTVSS
VL: B1 VL with F96H, P100Q, V104L, D105E
As to B2, the “binding by flow cytometry (GMFI)” value with Raji B cell line is recorded as “bound to the Raji B cell line”.

B3: 5G7-N19K: 5G7 with N-I-S sequence starting at position 19 changed to K-I-S (antibody, V domains shown)
VH: B1 VH with S30T, S32Y, D54G, R77N, H99G, T101S, I108M, F110V, L116T
VL: B1 VL with F96W, P100Q, D105E
Regarding B3, the “binding by flow cytometry (GMFI)” value with Raji B cell line was “bound to the Raji B cell line”.

B4: 46E8: human monoclonal anti-CD19 antibody, VH SEQ ID NO: 7 and VL SEQ ID NO: 15 (antibody, listed as Homo sapiens, V domains shown)
VH: B2 VH
VL: B1 VL with F96H, P100Q, V104L, D105E
In the case of B4, the “Thermo Stability Tm1” value in series [2] was 66.4 °C. In series [3], the “Aggregation Peak” value turned out to be 2.16 M and the “Unfolding Midpoint” value was found to be 2.43 M.

B5: 5G7: human monoclonal anti-CD19 antibody, VH SEQ ID NO: 5 and VL SEQ ID NO: 13 (antibody, listed as Homo sapiens, V domains shown)
VH: B1 VH with K19N, S30T, S32Y, D54G, R77N, H99G, T101S, I108M, F110V, L116T
VL: B1 VL with F96W, P100Q, D105E
Take B5: the “binding by flow cytometry (GMFI)” value in the series with Raji B cell line is recorded as “bound to the Raji B cell line”. Besides, the “Thermo Stability Tm1” value in series [2] is 68.5 °C. The “Unfolding Midpoint” value in series [3] was 2.91 M.

B6: 5G7-N19Q: 5G7 with N-I-S sequence starting at position 19 changed to Q-I-S (antibody, V domains shown)
VH: B1 VH with K19Q, S30T, S32Y, D54G, R77N, H99G, T101S, I108M, F110V, L116T
VL: B1 VL with F96W, P100Q, D105E
For B6, in the series with Raji B cell line, the “binding by flow cytometry (GMFI)” value is recorded as “bound to the Raji B cell line”.
